Reference: patent US6451314B1, “MHC conjugates useful in ameliorating autoimmunity” (Anergen, Inc., priority 1988, dated 2002)

B1: I-A^k: mouse Class II MHC glycoprotein I-A^k purified by affinity chromatography on 10-2.16 antibody (protein)
MHC II alpha: EDDIEADHVGSYGITVYQSPGDIGQYTFEFDGDELFYVDLDKKETVWMLPEFAQLRRFEPQGGLQNIATGKHNLEILTKRSNSTPATNEAPQATVFPKSPVLLGQPNTLICFVDNIFPPVINITWLRNSKSVTDGVYETSFFVNRDYSFHKLSYLTFIPSDDDIYDCKVEHWGLEEPVLKHWEPEIPAPMSELTE
MHC II beta: GNSERHFVHQFQPFCYFTNGTQRIRLVIRYIYNREEYVRFDSDVGEYRAVTELGRPDAEYWNKQYLERTRAELDTVCRHNYEKTETPTSLRRLEQPSVVISLSRTEALNHHNTLVCSVTDFYPAKIKVRWFRNGQEETVGVSSTQLIRNGDWTFQVLVMLEMTPRRGEVYTCHVEHPSLKSPITVEWRAQSESARSK

Tests used:
RT1.B = assay: Peptide loading of rat MHC II (nitrocellulose filter binding and TLC); conditions: 50-fold molar excess peptide, 37° C., 24 hours
Experimental: (§1) Rat MHC II Purification and Peptide Loading. Rat class II RT1.B and RT1.D molecules were detergent solubilized (0.5% NP-40, 10 mM Tris HCl pH 8.3, 1 mM PMSF, 0.02% NaN3) from homogenized spleens and purified by affinity chromatography with monoclonal antibodies OX 6 and […]. The RT1.B/D mixture was incubated at 37° C. for 24 hours with a 50-fold molar excess of peptide AChRα 100-116, followed by 24 hours of dialysis at 4° C. against 0.1% OG/PBS to remove unbound peptide. […] This complex is stable at 4° C. for at least 8 weeks.

RT1.D = assay: as above; conditions: 50-fold molar excess peptide, 37° C., 24 hours
Experimental: as §1

Lewis rats = assay: Therapeutic treatment of clinical stage 1 EAMG
[1] = Serum half-life of 125I-labeled I-A^k, effect of periodate/cyanoborohydride treatment; type: in vivo, mice; conditions: 10 μg i.v.
Experimental: (§2) The protocol for these studies was generally as follows: Affinity-purified, soluble MHC molecules were labeled with ^125I by the iodobeads method (Pierce Chemical Co., Rockford, Ill. Excess ^125I was removed by dialysis against PBS containing 0.1% neutral detergent. The quality of the labeled protein was assessed by thin layer chromatography, cellulose acetate electrophoresis, and polyacrylamide gel electrophoresis. The MHC glycoprotein was administered by tail vein injection to mice subjected to Lugol's solution in the drinking water at least one day before injection. Blood samples were obtained at different time points. The animals were then sacrificed to obtain organs of interest. Radioactivity in the blood and organ samples was detected in a gamma well counter according to standard techniques.
I-A^k in a phosphate buffer containing 3 mM taurodeoxycholate at pH 7.5 was labeled as described above. The labeled molecules were subjected to periodate oxidation and cyanoborohydride reduction for 5 or 21 hours at 4° C., using 20 mM sodium periodate and 40 mM cyanoborohydride (final concentrations) in 0.1 M acetate buffer at pH 5.5. The reaction was quenched by addition of ethylene glycol (final concentration 0.7%). […] Blood samples were obtained at different time points and the percent of injected dose of I-A^k retained in the blood was calculated.

[2] = Serum half-life of 125I-labeled I-A^s, effect of liposomes; type: in vivo, mice; conditions: Sets 1 and 2: 10 μg, injected without blank liposomes
Experimental: as §2
I-A^s was labeled as described above. The labeled I-A^s molecules were captured inside liposomes by standard procedures (see, e.g., Remingtion's, supra). Ten mice were injected with 10 μg I-A^s, as described above, and divided into four sets: (1) I-A^s alone; (2) liposomal I-A^s; (3) liposomal I-A^s coinjected with blank liposomes; and (4) blank liposomes plus, 10 minutes later, liposomal I-A^s coinjected with blank liposomes. Blood samples were obtained at different time points after injection, and the percent of injected dose of I-A^s retained in the blood was calculated.

[3] = Serum half-life of 125I-labeled I-A^k, effect of asialoletuin; type: in vivo, mice
Experimental: as §2
IA^k was labeled and administered to mice as described above. The mice were divided into three sets: (1) I-A^k (10 μg i.v.); (2) I-A^k (10 μg i.v.) plus asialoletuin (10 mg i.v.) plus asialoletuin (100 mg i.p.); and (3) I-A^k (10 μg i.v.) plus asialoletuin (10 mg i.p.). Blood was drawn at different time points and the percent of injected dose retained in the blood was calculated.

[4] = test system: T cell clones AJ1.2 and 4R3.4; assay: Proliferation (MTT uptake) of T cell clones with APC and MBP(1-13) after preincubation; type: cell-based, mouse; conditions: preincubation five hours at 37° C., 72-hour incubation
Experimental: The effects of detergent-solubilized Class II molecules were examined by culturing 1×10^5 AJ1.2 or 4R3.4 cells with 50-100 ul of purified I-A^k alone, purified I-A^k plus MBP(1-13) and medium alone for five hours at 37° C. in 5% CO2. Following this incubation the cells were diluted to 900 ul and tested for their ability to respond to antigen-presenting cells (APC) and antigen [MBP(1-13)] in a proliferation assay. Uptake of 3-(4,5-dimethyl-thiazol-2-7′)-2,5 diphenyltetrazolium bromide (MTT) was used as an indication of cell proliferation.
Data are presented as % suppression of proliferation of cells incubated with Class I+Ag compared to cells cultured with medium alone and were calculated by using the formula:
Therefore, 4R3.4 or AJ1.2 cells were preincubated with 50-100 ul of I-A^k+MBP(1-13), I-A^k, or medium alone for five hours at 37° C. The cells were then diluted to an appropriate concentration and added to APC. Antigen [MBP(1-13)] was added to a final concentration ranging from 13.3 um to 53.2 um.
APC used in the study were prepared from spleens of female A/J mice. […] Following this incubation, spleen cells were washed five times with RPMI containing antibiotics, counted, and used as APC's.
Following a 72-hour incubation period of the cells with APC and MBP(1-13), the extent of proliferation was quantitated using MTT uptake. […]

Row | Molecule | fraction of RT1.B that bound peptide (RT1.B) | fraction of RT1.D that bound peptide (RT1.D) | clinical stage of representative rat (Lewis rats; 61 days post EAMG induction) | clinical stage of representative rat (Lewis rats; 123 days post EAMG induction) | survival frequency (Lewis rats; 140 days post-induction, five weekly i.v. injections from clinical stage 1) [%] | serum half-life [1] [min] | serum mean half-life [2] [min] | mean serum half-life ([3]; Set 1: I-A^k 10 μg i.v.) [min] | mean serum half-life ([3]; Set 2: I-A^k 10 μg i.v. plus asialoletuin 10 mg i.v. plus asialoletuin 100 mg i.p.) [min] | mean serum half-life ([3]; Set 3: I-A^k 10 μg i.v. plus asialoletuin 10 mg i.p.) [min] | proliferation in presence of APC and MBP(1-13) [4]
1 | YAIVHMTKLLLDYPGKI [AChRα 100-116] | 70-80% | 90-100% | 2.5 | Dead (day 66) | 0 | – | – | – | – | – | –
2 | B1 | – | – | – | – | – | 4 | 2 | 3 | 40 | 35 | proliferated to the same extent as cells cultured in medium
